Data reported in patent publication US20260167712A1, “INHIBITORY ANTIBODIES AGAINST GLUT1” (ICOSAGEN CELL FACTORY OÜ, priority 2022, published 2026).
Entries after “also recorded” stand apart in the source; their conditions may differ.

B1: 6F12 #33 (antibody, V domains shown)
VH: AVTLDESGGGLQTPGGALSLVCKASGFTFSDHAIFWVRQAPDKGLEFVAAISSGTGSWTAYATVVKGRATISRDNGQSTVRLQLNNLRAADTATYYCAKGAGSACCYAGSIDAWGHGTEVIVSS
VL: ALTQPSSVSANPGETVKITCSGGSSSSYYGWYQQKSPGSAPVTLIYYNDKRPSDIPSRFSGSKSGSTATLTITGVQVEDEAVYYCGTGDGSFAIFGAGTTLTVL
B2: 2E5 #22 (antibody, V domains shown)
VH: AVTLDESGGGLQTPGGALSLVCKASGFTFSTKGMGWVRQTPGKGLEWVAGISSMRRYTYYAPAVKGRATISRDNGQSTVRLQLSSLRAEDSGTYYCARDATYCSWTTSTCGWSGGTIDAWGHGTEVIVSS
VL: ALTQPSSVSANLGGTVKITCSGGSGNYGWYQQKSPGSVPVTVIYSNDKRPSDIPSRFSGSGSGSTATLTITGVQVEDEAVYFCGSRDSSYVGLFGAGTTLTVL

Key:
SLC2A3 pseudotyped VLPs [1] = target: T1, SLC2A3 pseudotyped VLPs (Homo sapiens, UniProt P11169); assay: ELISA-based VLP binding assay, SLC2A3; settings: compared to MOCK VLPs, FIG. 3
T1 sequence (P11169 1-496): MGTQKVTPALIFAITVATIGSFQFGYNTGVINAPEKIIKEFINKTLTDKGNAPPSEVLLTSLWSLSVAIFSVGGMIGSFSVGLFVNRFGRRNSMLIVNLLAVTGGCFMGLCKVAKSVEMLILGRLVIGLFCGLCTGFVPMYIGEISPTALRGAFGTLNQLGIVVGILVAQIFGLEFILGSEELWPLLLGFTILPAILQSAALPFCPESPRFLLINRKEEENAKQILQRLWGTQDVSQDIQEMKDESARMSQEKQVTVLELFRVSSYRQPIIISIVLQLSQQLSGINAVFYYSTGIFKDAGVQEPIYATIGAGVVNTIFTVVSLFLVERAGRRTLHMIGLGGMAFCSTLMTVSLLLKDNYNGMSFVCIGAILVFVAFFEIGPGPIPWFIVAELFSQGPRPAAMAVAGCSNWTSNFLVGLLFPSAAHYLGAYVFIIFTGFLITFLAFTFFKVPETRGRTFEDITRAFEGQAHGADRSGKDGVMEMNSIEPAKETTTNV
Method: An ELISA-based VLP binding assay was carried out to compare the EC50 values of antibody clones (FIG. 1). Similarly, ELISA based VLP binding assay was performed to compare the binding of the antibodies to different glucose transporters (FIG. 3). MaxiSorp™ high-capacity binding ELISA plate (Thermo Fisher Scientific, US) were coated with 5 μg/mL SLC2A1, SLC2A2, SLC2A3, SLC2A4 pseudotyped VLPs or MOCK VLPs in PBS overnight. The plate was washed and blocked for 1 h with 0.05% Tween 20, 2% BSA in PBS. Serial dilutions of antibodies were incubated on a washed plate for 1 hour, followed by a 1-hour incubation with goat anti-human IgG horse radish peroxidase (HRP) conjugated (Invitrogen) antibody. TMB (3,3′,5,5′-Tetramethylbenzidine) Solution VII (Biopanda Diagnostics) was used as a substrate for HRP and 0.5 M H2SO4 was used as stop solution. After every step, the wells were washed with 0.05% Tween 20, 0.1% Proclin 300 PBS solution. Absorption at 450 nm was measured with Thermo Scientific™ Multiskan™ FC Microplate Photometer. Exemplary wise used antibodies 1G2 #9, 2A2 #12, 2E5 #22, 5G5 #30, 6F12 #33, 7C3 #39 all bound SLC2A1 VLPs with low nanomolar EC50 values (FIG. 1).

SLC2A3 pseudotyped VLPs [2] = target: T2, SLC2A3 pseudotyped VLPs (UniProt P11169 1-496); assay: ELISA on VLPs coated at 5 ug/mL, compared with MOCK VLPs
T2 construct: also called SLC2A3 VLPs; GLUT3
T2 sequence: T1 sequence (P11169 1-496)

SLC2A2 pseudotyped VLPs = target: T3, SLC2A2 pseudotyped VLPs (UniProt P11168 1-524); assay: as above
T3 construct: also called SLC2A2 VLPs; GLUT2
T3 sequence: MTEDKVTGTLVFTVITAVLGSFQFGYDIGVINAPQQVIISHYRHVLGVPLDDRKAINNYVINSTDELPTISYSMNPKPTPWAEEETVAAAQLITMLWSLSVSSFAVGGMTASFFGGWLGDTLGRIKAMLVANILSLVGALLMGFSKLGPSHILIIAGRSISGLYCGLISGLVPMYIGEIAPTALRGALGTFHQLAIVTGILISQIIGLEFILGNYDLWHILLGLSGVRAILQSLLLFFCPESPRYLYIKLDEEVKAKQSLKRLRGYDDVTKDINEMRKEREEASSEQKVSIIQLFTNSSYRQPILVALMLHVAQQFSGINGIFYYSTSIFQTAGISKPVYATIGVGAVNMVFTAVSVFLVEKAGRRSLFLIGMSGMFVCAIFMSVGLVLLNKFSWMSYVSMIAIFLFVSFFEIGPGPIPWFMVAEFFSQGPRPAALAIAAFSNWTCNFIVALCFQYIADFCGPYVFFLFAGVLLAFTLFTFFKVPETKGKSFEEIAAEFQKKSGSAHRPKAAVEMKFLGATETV

SLC2A4 pseudotyped VLPs = target: T4, SLC2A4 pseudotyped VLPs (UniProt P14672 1-509); assay: as above
T4 construct: also called SLC2A4 VLPs; GLUT4
T4 sequence: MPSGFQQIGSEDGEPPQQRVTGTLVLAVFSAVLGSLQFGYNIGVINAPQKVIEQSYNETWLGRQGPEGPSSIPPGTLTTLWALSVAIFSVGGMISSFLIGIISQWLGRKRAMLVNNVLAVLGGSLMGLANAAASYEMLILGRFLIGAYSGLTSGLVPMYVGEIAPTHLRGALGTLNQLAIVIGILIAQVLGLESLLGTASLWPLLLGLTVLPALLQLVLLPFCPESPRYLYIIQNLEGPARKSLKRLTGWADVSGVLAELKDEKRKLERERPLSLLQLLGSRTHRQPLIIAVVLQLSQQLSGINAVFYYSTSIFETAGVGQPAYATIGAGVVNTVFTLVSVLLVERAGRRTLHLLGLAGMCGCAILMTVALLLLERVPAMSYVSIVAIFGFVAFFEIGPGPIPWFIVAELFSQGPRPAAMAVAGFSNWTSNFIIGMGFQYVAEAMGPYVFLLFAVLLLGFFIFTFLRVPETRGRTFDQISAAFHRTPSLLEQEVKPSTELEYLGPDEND

Row | Molecule | binding to SLC2A3 VLPs (SLC2A3 pseudotyped VLPs [1]) | binding result (SLC2A3 pseudotyped VLPs [2]) | binding result (SLC2A2 pseudotyped VLPs) | binding result (SLC2A4 pseudotyped VLPs)
1 | B1 | did not bind | no binding | no binding | no binding
2 | B2 | did not bind; also recorded: Some binding | no binding | no binding | no binding
